Data taken from publication PMC7442640, “The oligomeric assembly of galectin-11 is critical for anti-parasitic activity in sheep (Ovis aries)” (Communications Biology, 2020).

Columns and labels:
[1] = target: T1, LGALS-11 isoform 1 (galectin-11) (Ovis aries, UniProt A0A0A7EMW6); assay: X-ray crystallography; assay type: binding; details: 2.40 Å complex structure; carbohydrate recognition domain (R53, N64, E74 hydrogen bonds; V62, W71 contacts)
T1 construct: gene LGALS15; recombinant, modified pET-28, E. coli BL21(DE3); alignment over 137 residues; homotetramer; natural variant with L9 and D124
T1 sequence (A0A0A7EMW6 1-137): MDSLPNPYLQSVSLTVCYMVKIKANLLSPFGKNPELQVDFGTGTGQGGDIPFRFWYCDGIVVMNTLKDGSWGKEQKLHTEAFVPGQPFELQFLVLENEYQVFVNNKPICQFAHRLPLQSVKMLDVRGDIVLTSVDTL

[2] = target: galectin-11 (LGALS-11) isoform 1 of sheep (Ovis aries) (sheep (Ovis aries))
[3] = target: galectin-11 (LGALS-11) isoform 1 of sheep (Ovis aries) (sheep (Ovis aries)); assay: AUC; sedimentation velocity, c(s) analysis with SEDFIT; 0.10, 0.30 and 0.90 mg/ml; 20 mM Tris-HCl pH 8.0, 100 mM NaCl, 0.5 mM TCEP; 20 °C; absorbance at 280 nm
[4] = target: galectin-11 (LGALS-11) isoform 2 of sheep (Ovis aries) (sheep (Ovis aries))
[5] = target: galectin-11 (LGALS-11) isoform 2 of sheep (Ovis aries) (sheep (Ovis aries)); assay: AUC; sedimentation velocity, c(s) analysis with SEDFIT; 0.10, 0.30 and 0.90 mg/ml; 20 mM Tris-HCl pH 8.0, 100 mM NaCl, 0.5 mM TCEP; 20 °C; absorbance at 280 nm

## OC[C@H]1O[C@@H](O)[C@H](O)[C@@H](O)[C@H]1O [β-D-galactose]
[1]
  X-ray crystallography: This galactose bound directly to the residues present in the four adjacent strands

## galectin-11 (LGALS-11) isoform 1 of sheep (Ovis aries) (natural protein)
[2]
  L4s of H. contortus with cuticular damage, shrunken soma and internal granules after 72 h with isoform 1: > 95%
  xL3s of H. contortus that did not develop to L4s when exposed to isoform 1 (1.0 mg/ml): 85%
[3]
  stoichiometry N: 4

## galectin-11 (LGALS-11) isoform 2 of sheep (Ovis aries) (natural protein)
[4]
  L4s of H. contortus with internal or cuticular damage after 72 h with isoform 2: < 10%
[5]
  stoichiometry N: 2
